Results published in paper PMC5550006.

Target: recombinant IPSE/alpha-1 expressed in tobacco plants (N-terminally tagged H6F-IPSE) (Schistosoma mansoni)
Test: SDS-PAGE under reducing and non-reducing conditions; purified IPSE on a 12% Bis-Tris gel, with and without DTT, Coomassie brilliant blue staining

**Q.** For “recombinant IPSE/alpha-1 expressed in tobacco plants (N-terminally tagged H6F-IPSE) (natural protein)”, which stoichiometry N is on record?
**A.** 2
